Laboratory results: patent publication US20200010567A1 (NEURIMMUNE, published 2020)

Assays:
[1] = molecular target: T1, BSA-coupled (GA)15 DPR protein peptide (bovine, conjugated via a bifunctional linker (SMCC) to bovine serum albumin); assay: indirect ELISA, BSA-coupled peptide coated, antibody titrated [also D00012 FIG. 3C]
T1 construct: also called BSA-(GA)15
Experimental: (§1) In brief, dipeptide repeat proteins were synthesized and purified by Schafer-N(Copenhagen, Denmark): (GA)₁₅: H-CHHHHHH(GA)₁₅-OH; (GP)₁₅: H-C(GP)₁₅-OH; (GR)₁₅: H-C(GR)₁₅-OH; (PA)₁₅: H-C(PA)₁₅-OH; (PR)₁₅: H—C(PR)₁₅-OH. DPR protein peptides were then conjugated via a bifunctional linker (SMCC) to bovine serum albumin (BSA). 96-well microplates (Corning Incorporated, Corning, USA) were coated with BSA-coupled or -uncoupled dipeptide repeat protein peptides at a concentration of either 5 μg/ml or 20 μg/ml in coating buffer (15 mM Na₂CO₃, 35 mM NaHCO₃, pH 9.42). Non-specific binding sites were blocked for 1 h at room temperature with PBS/0.1% Tween®-20 containing 2% BSA (Sigma-Aldrich, Buchs, Switzerland). Primary antibodies were diluted to the indicated concentrations and incubated 1 h at room temperature, followed by incubation with a donkey anti-human IgG Fcγ-specific antibody conjugated with HRP (Jackson ImmunoResearch Laboratories, Inc., West Grove, USA). Binding was determined by measurement of HRP activity in a standard colorimetric assay. EC₅₀ values were estimated by non-linear regression using GraphPad Prism software (San Diego, USA).

[2] = molecular target: T2, GP20: H-(GP)20HHHHHH-NH2 (C-terminal amide); assay: sandwich ELISA, peptide captured by anti-His antibody
T2 peptide: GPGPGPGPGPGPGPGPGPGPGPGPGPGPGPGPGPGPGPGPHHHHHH
Source text: In brief, His-tagged dipeptide repeat protein peptides were synthesized and purified by Schafer-N(Copenhagen, Denmark): GA₂₀: H-(GA)₂₀HHHHHH-NH₂; GA₁₀: H-(GA)₁₀HHHHHH-NH₂; GA₆: H-(GA)₆HHHHHH-NH₂; GA₅: H-(GA)₅HHHHHH-NH₂; GA₄: H-(GA)₄HHHHHH-NH₂; GA₃: H-(GA)₃HHHHHH-NH₂; GA₂: H-(GA)₂HHHHHH-NH₂; GP₂₀: H-(GP)₂₀HHHHHH-NH₂; GP₁₀: H-(GP)₁₀HHHHHH-NH₂; GP₆: H-(GP)₆HHHHHH-NH₂; GP₅: H-(GP)₅HHHHHH-NH₂; GP₄: H-(GP)₄HHHHHH-NH₂; GP₃: H-(GP)₃HHHHHH-NH₂; GP₂: H-(GP)₂HHHHHH-NH₂. 96-well microplates (Corning Incorporated, Corning, USA) were coated with monoclonal mouse anti-His tag antibody (Takara Bio Europe/Clontech, Saint-Germain-en-Laye, France) at a concentration of 10 μg/ml in coating buffer (15 mM Na₂CO₃, 35 mM NaHCO₃, pH 9.42) overnight at 4° C. Non-specific binding sites were blocked for 1 h at room temperature with PBS/0.1% Tween®-20 containing 2% BSA (Sigma-Aldrich, Buchs, Switzerland). After a washing step, His-tagged C9orf72 DPR protein peptides at equal concentration of either 1 μM or 5 μM in PBS (pH 7.4) were added for target-trapping by the anti-His tag antibody for 1 h at room temperature. […] Antibody binding to DPR protein peptides was detected by a donkey anti-human IgG Fcγ-specific antibody conjugated with HRP at 1:5000 dilution (Jackson ImmunoResearch Laboratories, Inc., West Grove, USA) for 1 h at RT. Binding was determined by measurement of HRP activity in a standard colorimetric assay. EC₅₀ values were estimated by non-linear regression using GraphPad Prism software (San Diego, USA).

[3] = molecular target: T3, (PA)15: H-C(PA)15-OH; assay: indirect ELISA, uncoupled peptide coated, antibody titrated [also D00015 FIG. 3K]
T3 construct: synthetic, not coupled to BSA; also called poly-PA DPR protein peptide
T3 peptide: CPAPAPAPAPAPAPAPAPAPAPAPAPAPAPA
Experimental: as §1

[4] = molecular target: T1, BSA-coupled (GA)15 DPR protein peptide; assay: indirect ELISA, BSA-coupled peptide coated, antibody titrated [also D00012 FIG. 3B]
Experimental: as §1

T1 sequence (peptide, as listed by the source limits assumed, chain 1 of 2): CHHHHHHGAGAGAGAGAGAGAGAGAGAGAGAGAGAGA
T1 sequence (P02769 25-607 limits assumed, chain 2 of 2): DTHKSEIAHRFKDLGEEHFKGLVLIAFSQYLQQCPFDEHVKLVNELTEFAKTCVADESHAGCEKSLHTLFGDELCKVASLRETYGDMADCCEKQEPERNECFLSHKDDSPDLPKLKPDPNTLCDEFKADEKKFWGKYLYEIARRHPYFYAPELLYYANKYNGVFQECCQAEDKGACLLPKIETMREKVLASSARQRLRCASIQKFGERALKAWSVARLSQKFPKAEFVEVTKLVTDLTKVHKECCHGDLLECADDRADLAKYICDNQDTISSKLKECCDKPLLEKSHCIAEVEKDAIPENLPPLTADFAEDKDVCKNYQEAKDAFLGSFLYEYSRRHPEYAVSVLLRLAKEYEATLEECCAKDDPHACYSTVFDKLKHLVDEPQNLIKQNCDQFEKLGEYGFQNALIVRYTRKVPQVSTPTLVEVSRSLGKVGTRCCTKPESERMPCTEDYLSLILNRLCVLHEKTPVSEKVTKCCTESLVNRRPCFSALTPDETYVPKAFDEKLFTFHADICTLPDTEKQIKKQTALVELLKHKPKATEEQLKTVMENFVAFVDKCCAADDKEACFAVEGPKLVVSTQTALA

B1: NI-308.15O7 (antibody, V domains shown)
VH: QVQLVESGGGVVQPGRSLRLSCAASGFTFSNHAMHWVRQAPGKGLEWVAVISYDGENTYYADSIEGRFTISRDNFKNTLFLQMYSLTADDTAMYFCARGGRRGHFTSYYLDYWGQGTLVTVSS
VL: CDIQMTQSPSSLSASVGDRVTITCRASQNIDKYLNWYQQIPGKAPKLLIYAASSLHSGVPSRFSGSGSGTDFSLTISSLQPEDFAIYYCQQSYSSFRTFGQGTKLEIK
- EC50 [1]: 0.41 nM

B2: NI-308.5G2 (antibody, V domains shown)
VH: EVQLVQSGADLRNPGASVTVSCTASGYHFADNAINWLRQAPGQRLEWMGWINIYSGNTKYSQNFQGRVTFTRNTSASTAFMHLRSLRSEDTAVYFCARDPDSSGYYLPYFDYWGQGTLVTVSS
VL: DIQLTQSPDSLTLSLGERATINCKSSQSVFYNSNNKNYLAWYQQKPGQPPKLLMYWASTRESGVTDRFSGSGSGTDFTLTITNLQAEDVAVYYCQQFYSSPLTFGGGTKVEIK
notes: Recombinant complete human IgG1, kappa
- EC50 [2]: 38.2 nM

B3: NI-308.4M1 (antibody, V domains shown)
VH: EVQLVETGGGVVQPGGSLRLSCEASGFTIGTYAMHWVRQFPGKGLDWVAVISFDGTTEYYTDAVKGRFTISRDNAKNTLYLQMNYLRGDDTAIYFCARDFTSSGETGSWTQVPDLWGQGTLVTVSS
VL: CEIVMTQSPATLSLSPGERATLSCRASQSVTKYLAWYQQKPGQAPRLLIYDVSYRAAGTPARFSGSGSGTDFTLTISSLEPEDFAVYYCHQRSSWPPVTFGGGTKVEIK
notes: as for B2
- EC50 [3]: 0.1 nM

B4: NI-308.18F7 (antibody, V domains shown)
VH: QVQLQESGPGLVKPSETLSVTCTVSGGSINDYYWNWIRQPAGKGLEWIGRIYASGTINYNPSLQSRVTMSIDTSKNQFSLDLISVSAADTAVYYCARWGQVVGDYYYGMDVWGQGTTVTVSS
VL: EIVLTQSPLSLSVTPGEPASISCKSSQSLQHTNGYNYLDWYLLKPGQSPQLLIFLTSNRASGVPDRFSGSGSGTNFTLKISRVEAEDVGVYYCMEGIQLWTFGQGTKLEIK
notes: as for B2
- EC50 [4]: 0.11 nM
